{
  "source": "patent US20220249439A1",
  "about": "(FRED HUTCHINSON CANCER RESEARCH CENTER, published 2022)",
  "molecular_target": "T1, eIF4E (mouse, endogenous in Pten^L/L prostate tissue) (mouse, UniProt P63073 2-217)",
  "T1 construct": "Endogenous protein in mouse prostate tumor tissue, detected with an antibody (SCBT) in a proximity ligation assay; also called eIF4E translation initiation factor; eukaryotic translation initiation factor 4E",
  "T1 sequence (P63073 2-217 limits assumed)": "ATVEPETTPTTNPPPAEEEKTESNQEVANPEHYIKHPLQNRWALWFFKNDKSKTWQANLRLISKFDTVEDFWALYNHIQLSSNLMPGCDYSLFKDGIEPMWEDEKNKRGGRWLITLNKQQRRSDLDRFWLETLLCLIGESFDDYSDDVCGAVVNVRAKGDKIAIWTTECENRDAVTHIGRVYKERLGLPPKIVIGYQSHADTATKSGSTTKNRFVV",
  "assay": "in situ proximity ligation assay on castrate vs intact Pten^L/L mouse prostate tumors; confirmed by m7GTP cap-binding assay",
  "protocol": "Flash frozen intact and castrate Pten^{L/L} ventral prostates dissected from each animal or from AR+ parental and AR− APIPC tumors were pulverized with mortar and pestle in appropriate volumes of lysis buffer containing 10 mM Tris/HCL pH 7.6, 140 mM KCl, 4 mM MgCl₂, 1 mM DTT, 1 mM EDTA, 1% Nonidet P-40 supplemented with phosphatase and protease inhibitor cocktails (Roche) and lysed for 30 min on ice. Lysates were cleared by centrifugation at 12000 rpm for 25 min at 4° C. Supernatants were collected and assayed for protein concentration using the Protein Assay Dye Reagent (Bio-Rad). 250 μg of protein were incubated rotating with 50 μl of γ-aminophenyl-m7GTP (C10-spacer)-agarose beads (Jena Bioscience) in lysis buffer without Nonidet P-40 at 4° C. overnight. After two washes in lysis buffer containing 0.5% Nonidet P-40 and two washes in PBS, beads were re-suspended in 60 μl of 1×SDS loading buffer and boiled for 5 min. Thirty microliters of boiled lysates were western blotted for eIF4G, eIF4E, and 4EBP1.\nTo test this hypothesis, proximity ligation assays (PLA) for eIF4E-eIF4G interactions and eIF4E-4EBP1 interactions were optimized (FIG. 2A). […] This was also confirmed by the cap-binding assay (FIG. 11A). […]",
  "data": [
    {"binder": "4EBP1 (mouse, endogenous in Pten^L/L prostate tissue) (other, UniProt Q60876 2-117, looked up, Endogenous protein) SAGSSCSQTPSRAIPTRRVALGDGVQLPPGDYSTTPGGTLFSTTPGGTRIIYDRKFLMECRNSPVAKTPPKDLPAIPGVTSPTSDEPPMQASQSQLPSSPEDKRAGGEESQFEMDI", "values": [
      {"measurement": "binding result", "value": "binds"}
    ]}
  ]
}
